Earlier results as cited in publication PMC2847397.

Target: Asp408 (UniProt position 408, GLLVDDAIVVV)
Assay: chemical modification

Multidrug efflux pump subunit AcrB (RND transporter) (Escherichia coli)
pKa: 7.4
